Substrate in this data set: Nc1nc2c(ncn2[C@@H]2O[C@H](COP(=O)(O)OP(=O)(O)OP(=O)(O)O)[C@@H](O)[C@H]2O)c(=O)[nH]1
The experiment in a line: BIOMOL Green (malachite green) phosphate release. The following applies: 5 μM protein, 10-1000 μM GTP, 6 h, 37 °C, pH 8.0, 10 mM MgCl2, 50 mM KCl. It counts as biochemical, Neisseria gonorrhoeae.

B1: ObgGC (Neisseria gonorrhoeae FA 1090) (protein)
chain: MKFIDEAKIEVAAGKGGNGATSFRREKFVPRGGPDGGDGGKGGSVWAEADENTNTLVEYRFVKRYQAKNGEKGHGSDRYGAGADDIVLKMPVGTLIRDLDTDEIVADLTYHGQRVCLAKGGKGGLGNIHFKSSVNRAPKQSTPGEEGETRSLQLELKVLADVGLLGMPNAGKSTLITAVSAARPKIANYPFTTLHPNLGVVRIDENHSFVMADIPGLIEGAAEGAGLGHRFLKHLSRTGLLLHVVDLAPFDETVNPAEEALAIINELRKYDEELYGKPRWLVLNKLDMLDEEEARARTAAFLEAVGWDYPEPDDRFQFDMETPRLFQISALTHQGTQELVHQINQYLAEKKRIEAEKAEAEKAAANVEIIEQQPKTDTGVFKPE
notes: full-length with C-terminal 6xHis tag, expressed in E. coli BL21(DE3), IMAC and size exclusion; tag not reported cut
As to B1, the Km amounted to 78.76 µM.

(Values after article PMC4743925, “Targeting an Essential GTPase Obg for the Development of Broad-Spectrum Antibiotics” (PLoS ONE, 2016).)
